Earlier results on one substance are cited in article PMC12073169.

The target of this data set is ATG3 (Homo sapiens) (UniProt Q9NT62).
Chain of UniProt Q9NT62 (Q9NT62 whole entry): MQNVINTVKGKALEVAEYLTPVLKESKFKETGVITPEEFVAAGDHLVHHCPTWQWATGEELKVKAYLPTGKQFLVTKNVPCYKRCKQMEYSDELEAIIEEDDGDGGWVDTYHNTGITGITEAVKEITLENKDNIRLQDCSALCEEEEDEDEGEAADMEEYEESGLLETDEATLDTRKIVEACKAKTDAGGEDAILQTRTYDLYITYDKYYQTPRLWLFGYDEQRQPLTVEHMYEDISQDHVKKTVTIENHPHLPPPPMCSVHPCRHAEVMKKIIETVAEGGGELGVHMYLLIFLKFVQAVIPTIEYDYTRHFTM

Usually Kd stands for the concentration at which binding is half-saturated. In the case of ATG7 (from UniProt O95352), the Kd is 350 nM.
